According to patent publication US20260193326A1:

What was measured:
Assay in all cases: SPR, AAV on CM5 chip
[1] = target: AAV5 (adeno-associated virus serotype 5)
[2] = target: AAV9 (adeno-associated virus serotype 9)
[3] = target: AAV8 (adeno-associated virus serotype 8)

B1: A4-D2 (VHH)
chain: VQLQESGGGLVQAGGSLRLSCAASGRGFSINTMGWYRQAPGKQRELVAAVTRGGTTNYADSVKGRFTISRDNAKNTVYLQMNSLRPEDTAVYYCHVDEVRQSSWTTSNLWGQGTQVTVSSGGGGSGGGGSGGGGSVQLQESGGGLVQAGGSLRLSCAASGRGFSINTMGWYRQAPGKQRELVAAVTRGGTTNYADSVKGRFTISRDNAKNTVYLQMNSLRPEDTAVYYCHVDEVRQSSWTTSNLWGQGTQVTVSSGGGGSGGGGSGGGGSVQLQESGGGLVQAGGSLRLSCAASGRGFSINTMGWYRQAPGKQRELVAAVTRGGTTNYADSVKGRFTISRDNAKNTVYLQMNSLRPEDTAVYYCHVDEVRQSSWTTSNLWGQGTQVTVSSGGGGSGGGGSGGGGSVQLQESGGGLVQAGGSLRLSCAASGRGFSINTMGWYRQAPGKQRELVAAVTRGGTTNYADSVKGRFTISRDNAKNTVYLQMNSLRPEDTAVYYCHVDEVRQSSWTTSNLWGQGTQVTVSS
Kd [1]: 0.0996 nM | koff [1]: 5.7e-06 s⁻¹ | kon [1]: 57200 M⁻¹ s⁻¹ | Kd [2]: 0.304 nM | koff [2]: 9e-06 s⁻¹ | kon [2]: 29600 M⁻¹ s⁻¹ | Kd [3]: 0.0821 nM | koff [3]: 3.6e-06 s⁻¹ | kon [3]: 43900 M⁻¹ s⁻¹

B2: A4-D3 (VHH)
chain: VQLQESGGGLAQAGGSLRLSCAASGRGFSINTMGWYRQAPGKQRELVAAVTRGGTTNYADSVKGRFTISRDNAKNTVYLQMNSLRPEDTAVYYCHVDEVRQSSWTTSNLWGQGTQVTVSSGGGGSGGGGSGGGGSVQLQESGGGLAQAGGSLRLSCAASGRGFSINTMGWYRQAPGKQRELVAAVTRGGTTNYADSVKGRFTISRDNAKNTVYLQMNSLRPEDTAVYYCHVDEVRQSSWTTSNLWGQGTQVTVSSGGGGSGGGGSGGGGSVQLQESGGGLAQAGGSLRLSCAASGRGFSINTMGWYRQAPGKQRELVAAVTRGGTTNYADSVKGRFTISRDNAKNTVYLQMNSLRPEDTAVYYCHVDEVRQSSWTTSNLWGQGTQVTVSSGGGGSGGGGSGGGGSVQLQESGGGLVQPGGSLRLSCAASGRGFSINTMGWYRQAPGKQRELVAAVTRGGTTNYADSVKGRFTISRDNAKNTVYLQMNSLRPEDTAVYYCHVDEVRQSSWTTSNLWGQGTQVTVSS
Kd [1]: 0.209 nM | koff [1]: 3.6e-06 s⁻¹ | kon [1]: 17300 M⁻¹ s⁻¹ | Kd [2]: 0.0707 nM | koff [2]: 3.2e-06 s⁻¹ | kon [2]: 45300 M⁻¹ s⁻¹ | Kd [3]: 0.0363 nM | koff [3]: 1.5e-06 s⁻¹ | kon [3]: 41400 M⁻¹ s⁻¹

B3: A4-D4 (VHH)
chain: VQLQESGGGLAQAGGSLRLSCAASGRGFSINTMGWYRQAPGKQRELVAAVTRGGTTNYADSVKGRFTISRDNAKNTVYLQMNSLRPEDTAVYYCHVDEVRQSSWTTSNLWGQGTQVTVSSGGGGSGGGGSGGGGSVQLQESGGGLVQPGGSLRLSCAASGRGFSINTMGWYRQAPGKQRELVAAVTRGGTTNYADSVKGRFTISRDNAKNTVYLQMNSLRPEDTAVYYCHVDEVRQSSWTTSNLWGQGTQVTVSSGGGGSGGGGSGGGGSVQLQESGGGLAQAGGSLRLSCAASGRGFSINTMGWYRQAPGKQRELVAAVTRGGTTNYADSVKGRFTISRDNAKNTVYLQMNSLRPEDTAVYYCHVDEVRQSSWTTSNLWGQGTQVTVSSGGGGSGGGGSGGGGSVQLQESGGGLAQAGGSLRLSCAASGRGFSINTMGWYRQAPGKQRELVAAVTRGGTTNYADSVKGRFTISRDNAKNTVYLQMNSLRPEDTAVYYCHVDEVRQSSWTTSNLWGQGTQVTVSS
Kd [1]: 0.657 nM | koff [1]: 1.73e-05 s⁻¹ | kon [1]: 26300 M⁻¹ s⁻¹ | Kd [2]: 0.073 nM | koff [2]: 2.1e-06 s⁻¹ | kon [2]: 28800 M⁻¹ s⁻¹ | Kd [3]: 0.0802 nM | koff [3]: 1.7e-06 s⁻¹ | kon [3]: 21200 M⁻¹ s⁻¹

B4: A4-D5 (protein)
chain: VQLQESGGGLVQPGGSLRLSCVASGSSFSINTMGWYRRAPGKQRELVATVTRDGSTNYANSVKGRFTISRDNAKNTVYLQMNSLRPEDTAVYYCHVDEVRQSSWTTSNLWGQGTQVTVSSGGGGSGGGGSGGGGSVQLQESGGGLVQPGGSLRLSCVASGSSFSINTMGWYRRAPGKQRELVATVTRDGSTNYANSVKGRFTISRDNAKNTVYLQMNSLRPEDTAVYYCHVDEVRQSSWTTSNLWGQGTQVTVSSGGGGSGGGGSGGGGSVQLQESGGGLVQPGGSLRLSCVASGSSFSINTMGWYRQAPGKQRELVATVTRDGSTNYANSVKGRFTISRDNAKNTVYLQMNSLRPEDTAVYYCHVDEVRQSSWTTSNLWGQGTQVTVSSGGGGSGGGGSGGGGSVQLQESGGGLVQPGGSLRLSCVASGSSFSINTMGWYRRAPGKQRELVATVTRDGSTNYANSVKGRFTISRDNAKNTVYLQMNSLRPEDTAVYYCHVDEVRQSSWTTSNLWGQGTQVTVSS
Kd [1]: 0.318 nM | koff [1]: 1.34e-05 s⁻¹ | kon [1]: 42100 M⁻¹ s⁻¹ | Kd [2]: 0.117 nM | koff [2]: 4.3e-06 s⁻¹ | kon [2]: 36900 M⁻¹ s⁻¹ | Kd [3]: 0.0836 nM | koff [3]: 5e-06 s⁻¹ | kon [3]: 59800 M⁻¹ s⁻¹

B5: A4-D6 (bispecific antibody)
chain: VQLQESGGGLVQTGGSLRLSCAASGRAFSLNTMGWYRQAPGKWRELVATVTRGGSTNYAGSVKGRFTISRDNAKNTVYLQMNNLRPEDTAVYYCHVDEVRESSWTTSNLWGQGTQVTVSSGGGGSGGGGSGGGGSVQLQESGGGLVQTGGSLRLSCAASGRAFSLNTMGWYRQAPGKWRELVATVTRGGSTNYAGSVKGRFTISRDNAKNTVYLQMNNLRPEDTAVYYCHVDEVRESSWTTSNLWGQGTQVTVSSGGGGSGGGGSGGGGSVQLQESGGGLVQPGGSLRLSCAASGSIFTINSMGWYRQAPGKWRELVATVTRGGNTNYANSVKGRFTISRDNAKNTVYLQMNTLRPEDTAVYYCHLDEVRDSSWTTSNLWGQGTQVTVSSGGGGSGGGGSGGGGSVQLQESGGGLVQPGGSLRLSCAASGSIFSINSMGWYRQAPGKWRELVATVTRGGSTNYANSVKGRFTISRDNAKNTVYLQMNTLRPEDTAVYYCHLDEVRDSSWTTSNLWGQGTQVTVSS
Kd [1]: 0.273 nM | koff [1]: 1.18e-05 s⁻¹ | kon [1]: 43300 M⁻¹ s⁻¹ | Kd [2]: 0.155 nM | koff [2]: 3.4e-06 s⁻¹ | kon [2]: 21900 M⁻¹ s⁻¹ | Kd [3]: 1.02 nM | koff [3]: 1.63e-05 s⁻¹ | kon [3]: 16000 M⁻¹ s⁻¹

B6: A4-D7 (bispecific antibody)
chain: VQLQESGGGLVQTGGSLRLSCAASGRAFSLNTMGWYRQAPGKWRELVATVTRGGSTNYAGSVKGRFTISRDNAKNTVYLQMNNLRPEDTAVYYCHVDEVRESSWTTSNLWGQGTQVTVSSGGGGSGGGGSGGGGSVQLQESGGGLVQPGGSLRLSCAASGSIFTINSMGWYRQAPGKWRELVATVTRGGNTNYANSVKGRFTISRDNAKNTVYLQMNTLRPEDTAVYYCHLDEVRDSSWTTSNLWGQGTQVTVSSGGGGSGGGGSGGGGSVQLQESGGGLVQPGGSLRLSCAASGSIFSINSMGWYRQAPGKWRELVATVTRGGSTNYANSVKGRFTISRDNAKNTVYLQMNTLRPEDTAVYYCHLDEVRDSSWTTSNLWGQGTQVTVSSGGGGSGGGGSGGGGSVQLQESGGGLVQTGGSLRLSCAASGRAFSLNTMGWYRQAPGKWRELVATVTRGGSTNYAGSVKGRFTISRDNAKNTVYLQMNNLRPEDTAVYYCHVDEVRESSWTTSNLWGQGTQVTVSS
Kd [1]: 0.216 nM | koff [1]: 4.9e-06 s⁻¹ | kon [1]: 22700 M⁻¹ s⁻¹ | Kd [2]: 0.658 nM | koff [2]: 9.4e-06 s⁻¹ | kon [2]: 14300 M⁻¹ s⁻¹ | Kd [3]: 1.41 nM | koff [3]: 1.79e-05 s⁻¹ | kon [3]: 12700 M⁻¹ s⁻¹

B7: A4-D8 (bispecific antibody)
chain: VQLQESGGGLVQPGGSLRLSCAASGSRFSLNTMGWYRQAPGKQRELVATVTRGGSTNYADSVKGRFTISRDNAKNTVYLQMNSLRPEDTAVYYCHVDELRESGWTTSNLWGQGTQVTVSSGGGGSGGGGSGGGGSVQLQESGGGLVQPGGSLRLSCAASGSRFSLNTMGWYRQAPGKQRELVATVTRGGSTNYADFVKGRFTISRDNAKNTVYLQMNSLRPEDTAVYYCHVDELRESGWTTSNLWGQGTQVTVSSGGGGSGGGGSGGGGSVQLQESGGGLVHSGGSLRLSCAASGSMFSLNTMGWYRQAPGKQRELVATITRGGGTSYADSVKGRFTISRDNAKNTVYLQMNSLRPEDTAVYYCHVDELRQSSWTTSNLWGQGTQVTVSSGGGGSGGGGSGGGGSVQLQESGGGLVQPGGSLRLSCAASGSRFSLNTMGWYRQAPGKQRELVATVTRGGSTNYADFVKGRFTISRDNAKNTVYLQMNSLRPEDTAVYYCHVDELRESGWTTSNLWGQGTQVTVSS
Kd [1]: 1.49 nM | koff [1]: 1.96e-05 s⁻¹ | kon [1]: 13200 M⁻¹ s⁻¹ | Kd [2]: 0.313 nM | koff [2]: 1.32e-05 s⁻¹ | kon [2]: 42200 M⁻¹ s⁻¹ | Kd [3]: 0.228 nM | koff [3]: 1.1e-05 s⁻¹ | kon [3]: 48200 M⁻¹ s⁻¹

B8: A4-D9 (bispecific antibody)
chain: VQLQESGGGLVHSGGSLRLSCAASGSMFSLNTMGWYRQAPGKQRELVATITRGGGTSYADSVKGRFTISRDNAKNTVYLQMNSLRPEDTAVYYCHVDELRQSSWTTSNLWGQGTQVTVSSGGGGSGGGGSGGGGSVQLQESGGGLVQPGGSLRLSCAASGSRFSLNTMGWYRQAPGKQRELVATVTRGGSTNYADFVKGRFTISRDNAKNTVYLQMNSLRPEDTAVYYCHVDELRESGWTTSNLWGQGTQVTVSSGGGGSGGGGSGGGGSVQLQESGGGLVQPGGSLRLSCAASGSRFSLNTMGWYRQAPGKQRELVATVTRGGSTNYADFVKGRFTISRDNAKNTVYLQMNSLRPEDTAVYYCHVDELRESGWTTSNLWGQGTQVTVSSGGGGSGGGGSGGGGSVQLQESGGGLVQTGGSLRLSCAASGRAFSLNTMGWYRQAPGKWRELVATVTRGGSTNYAGSVKGRFTISRDNAKNTVYLQMNNLRPEDTAVYYCHVDEVRESSWTTSNLWGQGTQVTVSS
Kd [1]: 0.1 nM | koff [1]: 2.3e-06 s⁻¹ | kon [1]: 22900 M⁻¹ s⁻¹ | Kd [2]: 0.745 nM | koff [2]: 1.94e-05 s⁻¹ | kon [2]: 26000 M⁻¹ s⁻¹ | Kd [3]: 0.318 nM | koff [3]: 9.9e-06 s⁻¹ | kon [3]: 31100 M⁻¹ s⁻¹

B9: A4-D10 (protein)
chain: VQLQESGGGLAQAGGSLRLSCAASGRGFSINTMGWYRQAPGKQRELVAAVTRGGTTNYADSVKGRFTISRDNAKNTVYLQMNSLRPEDTAVYYCHVDEVRQSSWTTSNLWGQGTQVTVSSGGGGSGGGGSGGGGSVQLQESGGGLVQPGGSLRLSCAASGRAFSINTMGWYRQAPGKQRELVATVTRDGSTNYAGSVKGRFTISRDNAKNTVYLQMNSLRPEDTAVYYCHVDEVRQSSWTTSNLWGQGTQVTVSSGGGGSGGGGSGGGGSVQLQESGGGLVQPGGSLRLSCAASGSIFIINTMGWYRRAPGKQRELVAAVTRGGSTNYADSVKGRFTISRDNAKNTVYLQMNSLRPEDTAVYYCHVDEVRQSSWTTSNLWGQGTQVTVSSGGGGSGGGGSGGGGSVQLQESGGGLVQPGGSLRLSCAASGSIFSINTMGWYRQAPGKQRELVAAVTRGGSTNYADSVKGRFTISRDNAKNTVYLQMNSLRPEDTAVYYCHVDEVRQSSWTTSNLWGQGTQVTVSS
Kd [1]: 0.481 nM | koff [1]: 8.3e-06 s⁻¹ | kon [1]: 17300 M⁻¹ s⁻¹ | Kd [2]: 0.0611 nM | koff [2]: 1.9e-06 s⁻¹ | kon [2]: 31100 M⁻¹ s⁻¹ | Kd [3]: 0.542 nM | koff [3]: 1.66e-05 s⁻¹ | kon [3]: 30700 M⁻¹ s⁻¹
